Test [1] has as its target T1, purified His-tagged septin 7 (full length) (UniProt Q16181 1-437).
T1 sequence: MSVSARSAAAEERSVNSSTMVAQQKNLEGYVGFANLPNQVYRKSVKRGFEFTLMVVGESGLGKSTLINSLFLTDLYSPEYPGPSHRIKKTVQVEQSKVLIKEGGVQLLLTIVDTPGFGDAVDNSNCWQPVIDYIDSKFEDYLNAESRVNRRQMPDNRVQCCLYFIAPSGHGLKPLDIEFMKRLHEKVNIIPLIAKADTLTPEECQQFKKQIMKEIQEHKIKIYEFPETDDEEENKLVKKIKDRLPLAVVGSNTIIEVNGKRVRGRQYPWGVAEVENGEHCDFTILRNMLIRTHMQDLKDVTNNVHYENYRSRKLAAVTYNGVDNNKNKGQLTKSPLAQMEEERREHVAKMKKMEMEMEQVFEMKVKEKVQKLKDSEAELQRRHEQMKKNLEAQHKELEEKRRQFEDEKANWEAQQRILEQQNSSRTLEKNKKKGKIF
In words: proteoliposome coflotation.

Test [2] deals with T1, purified His-tagged septin 7 (full …). In words: BLI. For orientation: Biolayer interferometry detects binding as a change in optical thickness at a sensor tip.
The target in test [3] is T2, SEPT7-ΔCC (septin 7 residues 1-331, lacking the coiled coil domain), His-tagged (UniProt Q16181 1-331).
T2 sequence: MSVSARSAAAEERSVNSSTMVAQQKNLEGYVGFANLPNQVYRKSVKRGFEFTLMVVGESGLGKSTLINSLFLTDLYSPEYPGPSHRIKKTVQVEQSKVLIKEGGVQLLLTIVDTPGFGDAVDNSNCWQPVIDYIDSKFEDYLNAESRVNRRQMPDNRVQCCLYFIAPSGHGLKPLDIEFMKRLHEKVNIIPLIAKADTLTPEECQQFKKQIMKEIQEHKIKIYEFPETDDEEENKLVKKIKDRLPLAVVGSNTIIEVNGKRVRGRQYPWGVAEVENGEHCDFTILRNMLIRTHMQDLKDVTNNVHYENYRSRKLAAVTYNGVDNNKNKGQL
In words: BLI.

No end group written: not given here.

B1: FIT2-Strep-His8-GFP fusion protein, reconstituted into proteoliposomes (natural protein)
chain: MEHLERCEWLLRGTLVRAAVRRYLPWALVASMLAGSLLKELSPLPESYLSNKRNVLNVYFVKVAWAWTFCLLLPFIALTNYHLTGKAGLVLRRLSTLLVGTAIWYICTSIFSNIEHYTGSCYQSPALEGVRKEHQSKQQCHQEGGFWHGFDISGHSFLLTFCALMIVEEMSVLHEVKTDRSHCLHTAITTLVVALGILTFIWVLMFLCTAVYFHNLSQKVFGTLFGLLSWYGTYGFWYPKAFSPGLPPQSCSLNLKQDSYKK
In the case of B1, the binding result in test [1] was “binds”.

Turning to MEHLERCEWLLRGTLVRAAVRRY (also: biotinylated, site not given here) [biotinylated FIT2 N-terminal loop peptide (NTL, residues 1-23)], the binding result in test [2] and in test [3] was “binds” each time.

These data come from paper PMC8056755 (The Journal of Cell Biology, 2021).
